# Paper PMC3240717
# Target: CD44-AFAP-110 complex (human (endogenous in MDA-MB-231)) (UniProt P16070)
# Test: radioligand binding
# Chain of UniProt P16070 (P16070 21-742, chain 1 of 2): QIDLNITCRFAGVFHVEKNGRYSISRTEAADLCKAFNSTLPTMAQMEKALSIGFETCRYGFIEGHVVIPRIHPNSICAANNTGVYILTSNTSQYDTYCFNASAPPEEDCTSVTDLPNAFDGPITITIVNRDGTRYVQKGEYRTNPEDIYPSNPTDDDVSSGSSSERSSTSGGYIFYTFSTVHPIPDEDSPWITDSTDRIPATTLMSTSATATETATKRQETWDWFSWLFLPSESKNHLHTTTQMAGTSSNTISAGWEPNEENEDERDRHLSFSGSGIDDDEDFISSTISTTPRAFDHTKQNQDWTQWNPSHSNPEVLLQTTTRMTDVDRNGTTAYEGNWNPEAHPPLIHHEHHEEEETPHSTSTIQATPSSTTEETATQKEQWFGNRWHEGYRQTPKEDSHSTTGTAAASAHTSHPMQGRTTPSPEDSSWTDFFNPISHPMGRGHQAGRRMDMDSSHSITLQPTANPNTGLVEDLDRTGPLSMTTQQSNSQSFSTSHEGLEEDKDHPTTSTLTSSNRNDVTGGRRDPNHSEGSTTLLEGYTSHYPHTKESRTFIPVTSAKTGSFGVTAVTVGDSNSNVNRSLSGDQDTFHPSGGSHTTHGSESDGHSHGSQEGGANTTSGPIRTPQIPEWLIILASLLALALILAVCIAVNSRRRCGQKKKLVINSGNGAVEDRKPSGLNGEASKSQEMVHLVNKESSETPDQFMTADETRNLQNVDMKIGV
# Chain of UniProt P16070 (Q8N556 whole entry, chain 2 of 2, further chain): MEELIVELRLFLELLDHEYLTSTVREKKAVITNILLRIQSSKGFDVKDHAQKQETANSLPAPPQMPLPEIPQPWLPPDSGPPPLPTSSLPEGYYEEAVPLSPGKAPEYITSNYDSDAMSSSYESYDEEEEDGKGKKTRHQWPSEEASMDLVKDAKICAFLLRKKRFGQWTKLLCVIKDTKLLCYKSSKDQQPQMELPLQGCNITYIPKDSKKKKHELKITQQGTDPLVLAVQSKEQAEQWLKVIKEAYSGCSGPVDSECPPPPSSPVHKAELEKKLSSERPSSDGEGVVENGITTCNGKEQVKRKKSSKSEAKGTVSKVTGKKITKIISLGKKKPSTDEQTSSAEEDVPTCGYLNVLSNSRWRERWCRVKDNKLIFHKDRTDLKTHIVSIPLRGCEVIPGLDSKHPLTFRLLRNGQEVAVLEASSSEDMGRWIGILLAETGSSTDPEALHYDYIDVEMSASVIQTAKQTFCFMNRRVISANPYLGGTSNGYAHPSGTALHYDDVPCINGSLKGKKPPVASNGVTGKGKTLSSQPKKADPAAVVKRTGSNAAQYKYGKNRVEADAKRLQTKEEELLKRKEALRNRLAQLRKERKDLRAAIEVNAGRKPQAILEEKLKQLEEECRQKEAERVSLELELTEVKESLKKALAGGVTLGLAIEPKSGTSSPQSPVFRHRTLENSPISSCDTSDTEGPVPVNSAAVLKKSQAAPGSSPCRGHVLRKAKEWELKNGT
substance,measurement,value
filamentous actin (F-actin) (natural protein),"125I-F-actin bound, cpm (cells: HA fragment (2-3 disaccharide) treatment)",11700 cpm
same,"125I-F-actin bound, cpm (cells: HMW-HA treatment)",13800 cpm
same,"125I-F-actin bound, cpm (cells: LMW-HA treatment)",38400 cpm
same,"125I-F-actin bound, cpm (cells: anti-CD44 IgG + LMW-HA treatment)",12500 cpm
same,"125I-F-actin bound, cpm (cells: no treatment, control)",12700 cpm
same,"125I-F-actin bound, cpm (cells: normal IgG + LMW-HA treatment)",38000 cpm
same,"125I-F-actin bound, cpm (cells: normal IgG + no HA treatment)",12500 cpm
same,"125I-F-actin bound, cpm (cells: scrambled siRNA, HMW-HA treatment)",11500 cpm
same,"125I-F-actin bound, cpm (cells: scrambled siRNA, LMW-HA treatment)",31800 cpm
same,"125I-F-actin bound, cpm (cells: scrambled siRNA, no treatment, control)",11000 cpm
